Assay results from patent US20260091068A1, “METHODS FOR TREATING AND PREVENTING DISEASES” (priority 2017, published 2026).

Tested on: Bacteriophages of E. coli
Experiment: Inactivation of bacteriophages by nucleases and proteases, titer by Gratia's method (Example 22)
Format: cell-based
Conditions: E. coli phage treated with 10 mcg/ml enzyme for 30 min
Method: As a control, when the original phage is added back, the titer increases.

B1: Proteinase K: Proteinase K (Promega) (protein, UniProt P06873 106-384, looked up)
Proteinase K: AAQTNAPWGLARISSTSPGTSTYYYDESAGQGSCVYVIDTGIEASHPEFEGRAQMVKTYYYSSRDGNGHGTHCAGTVGSRTYGVAKKTQLFGVKVLDDNGSGQYSTIIAGMDFVASDKNNRNCPKGVVASLSLGGGYSSSVNSAAARLQSSGVMVAVAAGNNNADARNYSPASEPSVCTVGASDRYDRRSSFSNYGSVLDIFGPGTSILSTWIGGSTRSISGTSMATPHVAGLAAYLMTLGKTTAASACRYIADTANKGDLSNIPFGTVNLLAYNNYQA
- Phage titer (by Gratia's method): 6 × 10^4
